According to patent US20220127585A1 (UNIVERSITY OF SOUTH CAROLINA, published 2022):
Bridges are numbered along the chain shown (N, C = ends). Where no end group is shown, it is not given here. [ ]: non-standard residue; d: D form. The star is where a group is joined. C4 = C-terminal cap: phenethyl group with a meta isopentyloxy group, CC(C)CCOc1cccc(CCN*)c1; NMeR = CN[C@@H](CCCNC(=N)N)C(=O)O; PhAc = O=C(Cc1ccccc1)*

How the values were obtained:
B-Raf kinase [1] = target: T1, B-Raf kinase (UniProt P15056 448-723, limits assumed); test: intrinsic tryptophan fluorescence (ITF), column head 'Kd (ITF) (µM)'
Procedure: Fluorescence intensity was measured with a Hitachi F-2500 Fluorescence Spectrophotometer. A 1.6 mL of protein solution (0.5 μM) was placed in a cuvette and equilibrated at 15° C. for 1 hour. After equilibration, small increments (2-15 μL) of the ligand solution were injected in the cuvette. The experiments were performed in 20 mM HEPES buffer (pH 7.5), 10 mM MgCl2, 30 mM NaCl. […] The slits were set at 10 and 10 nm in the excitation and emission respectively. To determine dilution effect of B-Raf (due to ligand addition) and any fluorescence effect by unbound ligand, a blank sample containing Trp with the same fluorescence signal was titrated with ligand additions as described above. The sample absorbance was kept below 0.1 to minimize the inner filter effect.

B-Raf kinase [2] = target: T1, B-Raf kinase; test: direct binding affinity (Kd; values in FIG. 14)
B-Raf kinase [3] = target: T1, B-Raf kinase; test: binding affinity, Table 3 (method not given; the Methods describe fluorescence titration)

T1 sequence (P15056 448-723 limits assumed): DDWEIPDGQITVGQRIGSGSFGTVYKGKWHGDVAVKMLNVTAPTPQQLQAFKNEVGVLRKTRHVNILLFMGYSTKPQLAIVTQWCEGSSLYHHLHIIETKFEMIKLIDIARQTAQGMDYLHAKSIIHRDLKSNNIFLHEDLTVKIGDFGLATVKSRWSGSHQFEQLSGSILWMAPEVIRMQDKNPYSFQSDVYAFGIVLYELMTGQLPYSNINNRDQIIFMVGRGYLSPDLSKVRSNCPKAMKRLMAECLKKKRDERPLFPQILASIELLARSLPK

B1: SEQ ID NO: 63 (TRHVNI) with N-Cap N2 and C-Cap C4 (peptide)
peptide: PhAc-TRHVNI-C4
SMILES: CC[C@H](C)[C@H](NC(=O)[C@H](CC(N)=O)NC(=O)[C@@H](NC(=O)[C@H](Cc1c[nH]cn1)NC(=O)[C@H](CCCNC(=N)N)NC(=O)[C@@H](NC(=O)Cc1ccccc1)[C@@H](C)O)C(C)C)C(=O)NCCc1cccc(OCCC(C)C)c1
B-Raf kinase [1]
  Kd: 280 nM

B2: SEQ ID NO: 64 (K-MeR-a-PAE) (peptide)
peptide: K[NMeR][dA]PAE
modifications: also: cyclic, closure not given here
B-Raf kinase [2]
  fold increase in direct binding affinity compared to SEQ ID NO: 1: 225 fold
B-Raf kinase [1]
  Kd: 17 nM

B3: SEQ ID NO: 48 (KRHVAE) (peptide)
peptide: KRHVAE
modifications: lactam 1-6
B-Raf kinase [3]
  Kd: 300 nM
